According to patent publication US20240084003A1 (SIMCERE ZAIMING PHARMACEUTICAL, published 2024):

Experiments:
[1] = biological target: T1, human CD22-ECD-His protein (human, UniProt P20273 20-687); experiment: ELISA, Ab 0.01 nM
T1 construct: Made in house in HEK293E; also called hCD22-ECD-His; recombinant human CD22-ECD His protein; not shown: His tag
T1 sequence: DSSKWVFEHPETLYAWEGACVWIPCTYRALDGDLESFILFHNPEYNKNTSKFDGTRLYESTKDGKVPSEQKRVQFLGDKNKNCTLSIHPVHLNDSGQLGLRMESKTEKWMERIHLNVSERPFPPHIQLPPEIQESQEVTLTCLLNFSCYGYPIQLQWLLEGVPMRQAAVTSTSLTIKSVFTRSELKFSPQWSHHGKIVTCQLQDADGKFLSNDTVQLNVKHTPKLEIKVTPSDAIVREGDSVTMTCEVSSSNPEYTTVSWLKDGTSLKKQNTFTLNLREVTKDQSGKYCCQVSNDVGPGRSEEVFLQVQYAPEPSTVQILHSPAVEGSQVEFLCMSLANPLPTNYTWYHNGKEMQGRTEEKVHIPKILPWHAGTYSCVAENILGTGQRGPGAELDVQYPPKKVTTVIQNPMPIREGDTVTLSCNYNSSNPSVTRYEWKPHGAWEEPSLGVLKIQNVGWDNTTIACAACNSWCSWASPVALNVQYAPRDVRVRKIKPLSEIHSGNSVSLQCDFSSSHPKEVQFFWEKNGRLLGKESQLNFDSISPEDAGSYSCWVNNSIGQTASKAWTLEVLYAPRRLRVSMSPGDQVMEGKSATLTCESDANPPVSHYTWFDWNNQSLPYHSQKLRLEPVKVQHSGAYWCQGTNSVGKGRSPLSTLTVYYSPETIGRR
Method: (§1) In order to detect the binding activity of CD22 human-murine chimeric antibodies to CD22 protein, the purified human CD22-ECD-His protein obtained in Example 2 was diluted with PBS to a final concentration of 2 μg/mL, and then added to 96-well ELISA plate at 100 μl/well. The plate was sealed with plastic film and incubated overnight at 4° C., the plate was washed 2 times with PBS the next day, and then a blocking solution [PBS+2% (w/w) BSA] was added for blocking at room temperature for 2 hours. […] After incubation at 37° C. for 2 hours, the plate was washed 3 times with PBS. HRP (horseradish peroxidase)-labeled secondary antibody (purchased from Sigma, catalog number: A0170) was added, and incubated at 37° C. for 2 hours, and the plate was washed 5 times with PBS. TMB substrate was added at 50 μl/well, and incubated at room temperature for 30 minutes, then a stop solution (1.0 N HCl) was added at 50 μl/well.

[2] = biological target: T1, human CD22-ECD-His protein; experiment: ELISA, Ab 0.10 nM
Method: as §1

[3] = biological target: T1, human CD22-ECD-His protein; experiment: ELISA, Ab 0.001 nM
Method: as §1

[4] = biological target: T1, human CD22-ECD-His protein; experiment: ELISA, Ab 10.00 nM
Method: as §1

[5] = biological target: T1, human CD22-ECD-His protein; experiment: ELISA, Ab 0.0001 nM
Method: as §1

[6] = biological target: T1, human CD22-ECD-His protein; experiment: ELISA, Ab 100.00 nM
Method: as §1

[7] = biological target: T1, human CD22-ECD-His protein; experiment: ELISA, Ab 0.00001 nM
Method: as §1

[8] = biological target: T1, human CD22-ECD-His protein; experiment: ELISA, human CD22-ECD-His coated
Method: as §1

[9] = biological target: T2, murine CD22 protein (ACROBiosystems, SI2-M52Ha) (murine, UniProt P35329 22-708); experiment: ELISA, murine CD22-ECD-His coated
T2 construct: extracellular domain; also called murine CD22-ECD; murine CD22-ECD-His
T2 sequence (looked up): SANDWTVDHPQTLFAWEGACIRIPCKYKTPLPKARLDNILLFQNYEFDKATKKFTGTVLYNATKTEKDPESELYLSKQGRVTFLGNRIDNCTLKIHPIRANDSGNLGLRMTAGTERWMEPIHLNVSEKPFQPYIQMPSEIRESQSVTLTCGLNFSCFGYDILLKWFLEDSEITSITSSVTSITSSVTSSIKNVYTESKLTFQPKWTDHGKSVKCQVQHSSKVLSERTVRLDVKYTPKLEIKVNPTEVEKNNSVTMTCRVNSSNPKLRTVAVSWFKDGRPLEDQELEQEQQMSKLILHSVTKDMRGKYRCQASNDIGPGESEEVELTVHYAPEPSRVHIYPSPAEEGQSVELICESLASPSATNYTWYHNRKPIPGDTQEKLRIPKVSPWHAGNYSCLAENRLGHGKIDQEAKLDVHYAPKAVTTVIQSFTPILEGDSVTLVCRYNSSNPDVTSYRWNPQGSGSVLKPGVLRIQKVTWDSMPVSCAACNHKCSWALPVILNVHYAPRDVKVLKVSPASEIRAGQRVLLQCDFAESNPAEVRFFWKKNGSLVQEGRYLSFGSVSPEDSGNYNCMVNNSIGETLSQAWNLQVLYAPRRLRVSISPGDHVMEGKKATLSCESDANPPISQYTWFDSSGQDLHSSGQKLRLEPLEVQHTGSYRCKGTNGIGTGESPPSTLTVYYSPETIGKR
Method: as §1
In order to detect the species cross-binding activity of the chimeric antibodies, an ELISA plate was coated with commercial murine CD22 protein (ACROBiosystems, catalog number: SI2-M52Ha) and monkey CD22 protein (ACROBiosystems, catalog number: SI2-R52Ha), respectively, and the ELISA detection was performed according to the method in Example 5.1.

[10] = biological target: T3, human CD22 domain1-4-His (human, UniProt P20273 20-425); experiment: ELISA, human CD22 domain1-4-His coated
T3 construct: also called hCD22 domain1-4-His; not shown: His tag
T3 sequence: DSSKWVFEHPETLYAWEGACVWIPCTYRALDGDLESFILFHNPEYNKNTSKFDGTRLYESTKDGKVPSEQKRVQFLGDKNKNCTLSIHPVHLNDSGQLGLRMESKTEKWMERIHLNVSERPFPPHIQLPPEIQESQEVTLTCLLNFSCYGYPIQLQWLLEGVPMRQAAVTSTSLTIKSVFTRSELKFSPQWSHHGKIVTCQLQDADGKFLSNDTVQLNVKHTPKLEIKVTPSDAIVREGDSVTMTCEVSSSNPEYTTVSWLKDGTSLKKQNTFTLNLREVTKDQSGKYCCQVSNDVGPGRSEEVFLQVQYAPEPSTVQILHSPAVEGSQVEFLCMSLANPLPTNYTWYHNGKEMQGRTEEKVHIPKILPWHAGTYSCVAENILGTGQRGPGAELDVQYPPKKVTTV

[11] = biological target: T4, human CD22 domain5-7-His (human, UniProt P20273 414-687); experiment: ELISA, human CD22 domain5-7-His coated
T4 construct: also called hCD22 domain5-7-His; not shown: His tag
T4 sequence: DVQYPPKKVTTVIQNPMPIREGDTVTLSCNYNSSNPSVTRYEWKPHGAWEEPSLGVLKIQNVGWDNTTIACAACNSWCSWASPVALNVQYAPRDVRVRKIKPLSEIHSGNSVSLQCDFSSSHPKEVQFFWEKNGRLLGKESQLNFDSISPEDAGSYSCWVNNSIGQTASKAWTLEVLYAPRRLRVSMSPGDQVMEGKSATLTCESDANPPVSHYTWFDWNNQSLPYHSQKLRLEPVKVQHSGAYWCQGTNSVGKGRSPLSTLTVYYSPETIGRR

OD450 [1]: 2.2 OD450 | OD450 [2]: 2.51 OD450 | OD450 [3]: 1.19 OD450 | OD450 [4]: 2.46 OD450 | OD450 [5]: 0.34 OD450 | OD450 [6]: 2.88 OD450 | OD450 [7]: 0.15 OD450 | EC50 (read off the curve) [8]: ~0.02 nM | binding result [9]: no binding (tested: 100 nM) | EC50 (read off the curve) [10]: ~0.03 nM | binding result [11]: no binding (tested: 100 nM)
B1: F1.7.6 (antibody, human IgG1, kappa, V domains shown)
VH: EIQLQQSGPELVKPGTSVKVSCKASGYDFTRYNMYWVKQSHGKSLEWIGYIDPYNGDTRYNQKFKGKATLTVDKSSSTAYMHLNSLTSEDSAVYYCEAIYYDMEGYALDYWGQGTSVTVSS
VL: DIVMSQSPSSLAVSVGEKVTMSCKSSQSLLYSNNQKNYLAWYQQKPGQSPKKLIYWASTRESGVPDRLTGSGSGTDFTLTISSVTAEDLAVYYCQQFYSYPWTFGGGTKLEIKR
notes: Human-murine chimeric IgG1, kappa
